Key:
[1] = target: Hcp1 (hemolysin co-regulated protein 1) of the Sci-1 T6SS of enteroaggregative E. coli, wild type (enteroaggregative E. coli 17-2); test: SEC-MALS; SEC/MALS/UV/RI on KW803 and KW804 columns (Shodex), Tris-HCl 20 mM pH 7.5, NaCl 100 mM, 0.5 ml/min; monomers in the hexamer
[2] = target: Hcp1 (hemolysin co-regulated protein 1) of the Sci-1 T6SS of enteroaggregative E. coli, wild type (enteroaggregative E. coli 17-2); test: SPR; BIAcore T200, 25°C; Hcp1 immobilised by amine coupling (CM5 chip in the results, HC200m Xantech chip in the methods), Hcp1 3.75-120 µM as analyte in HBS-EP; steady state, 1:1 equilibrium model; hexamer with hexamer; Hcp1WW tested in the same conditions
[3] = target: Hcp1 N93W/S158W double mutant (Hcp1WW) (enteroaggregative E. coli 17-2); test: SEC-MALS; MALLS-SEC-UV of Hcp1WW, data not shown; monomers in the hexamer
[4] = target: Hcp2 of enteroaggregative E. coli (second T6SS gene cluster), wild type (enteroaggregative E. coli 17-2); test: SEC-MALS; SEC/MALS/UV/RI on KW803 and KW804 columns (Shodex), Tris-HCl 20 mM pH 7.5, NaCl 100 mM, 0.5 ml/min; monomers in the hexamer

Hcp1 (hemolysin co-regulated protein 1) of the Sci-1 T6SS of enteroaggregative E. coli, wild type (natural protein)
stoichiometry N [1]: 6 | Kd [2]: 7.2 µM

Hcp1 N93W/S158W double mutant (Hcp1WW) (natural protein)
stoichiometry N [3]: 6

Hcp2 of enteroaggregative E. coli (second T6SS gene cluster), wild type (natural protein)
stoichiometry N [4]: 6

— article PMC3925092
